Test results reported in PMC9580340 (Science (New York, N.y.), 2022).

Legend:
[1] = target: T1, SARS-CoV-2 D614G spike, full length, on transfected 293T cells (SARS-CoV-2, QHD43416.1 (Wuhan-Hu-1) …, UniProt A0A6H1PJZ3, D614G); test: flow cytometry on cells; settings: one partner purified
T1 construct: also called ancestral D614G spike

[2] = target: SARS-CoV-2 B.1.1.529 (Omicron; BA.1) spike, full length, on transfected 293T cells (SARS-CoV-2 B.1.1.529 (Omicron BA.1), A67V | H69del | V70del | T95I | G142D | V143del | Y144del | Y145del | N211del | …); test: flow cytometry on cells; settings: one partner purified
[3] = target: T2, SARS-CoV-2 B.1.1.529 (Omicron) S2P spike, trimeric ectodomain (cryo-EM) (SARS-CoV-2 B.1.1.529 (Omicron BA.1), …, A67V | H69del | V70del | T95I | G142D | V143del | Y144del | Y145del | N211del | …); test: cryo-EM structure; settings: both partners purified
T2 construct: also called B.1.1.529 spike; B.1.1.529 S2P spike

B1: A19-46.1 IgG1 (antibody, V domains shown)
VH: QVQLVESGGGVVQPGRSLRLSCAASGFTLSSYGMHWVRQAPGKGLEWVAVISYDGSNKYYVDSVKGRFTISRDNSKNTLYLQMNSLRAEDTAVYYCARGWAYWELLPDYYYGMDVWGQGTTVTVSS
VL: QTVVTQEPSFSVSPGGTVTLTCGLSSGSVSTAYFPSWYQQTPGQAPRTLIYGTNTRSSGVPDRFSGSILGNKAALTITGAQADDESDYYCVLYMGRGIVVFGGGTKLTVL
B1 was tested, and the binding result [1] was “binds” and the “binding as percent of D614G” value [2] was 47 % of D614G.

B2: A19-61.1 IgG1 (antibody, V domains shown)
VH: QVQLVESGGGVVQPGRSLRLSCAASGFTFSSYAFHWVRQAPGKGLEWVAVISYDGSNQYYADSVKGRFTISRDNSKNTLYLQMNSLRADDTAVYYCARDLAIAVAGTWHYYNGMDVWGQGTTVTVSS
VL: DIQMTQSPSSVSASVGDRVIITCRASQGISSWLAWYQQKPGKAPKVLIYDASSLQSGVPSRFSGSGYGTDFTLTISSLQPEDSATYYCQQAKSFPITFGQGTRLEIK
B2: binds [1].

B3: Fab A19-46.1 (Fab, V domains shown)
VH: QVQLVESGGGVVQPGRSLRLSCAASGFTLSSYGMHWVRQAPGKGLEWVAVISYDGSNKYYVDSVKGRFTISRDNSKNTLYLQMNSLRAEDTAVYYCARGWAYWELLPDYYYGMDVWGQGTTVTVSS
VL: QTVVTQEPSFSVSPGGTVTLTCGLSSGSVSTAYFPSWYQQTPGQAPRTLIYGTNTRSSGVPDRFSGSILGNKAALTITGAQADDESDYYCVLYMGRGIVVFGGGTKLTVL
notes: 17-residue-long CDR H3
With B3 the “stoichiometry N” value [3] was 2 Fabs per spike trimer.
